US20150150960A1, “PROTECTION AGAINST DENGUE VIRUS AND PREVENTION OF SEVERE DENGUE DISEASE” (priority 2010, published 2015)

How the values were obtained:
[1] = molecular target: NS4B2399-2407 / HLA A*0101 (DENV2 strain S221; human)
[2] = molecular target: NS4A2074-2083 / HLA A*1101 (DENV2 strain S221; human)
[3] = molecular target: NS53375-3383 / HLA A*0101 (DENV2 strain S221; human)
[4] = molecular target: E631-639 / HLA A*0201 (DENV2 strain S221; human)
[5] = molecular target: NS31978-1987 / HLA B*0702 (DENV2 strain S221; human)
[6] = molecular target: NS52885-2894 / HLA B*0702 (DENV2 strain S221; human)
[7] = molecular target: NS31700-1709 / HLA B*0702 (DENV2 strain S221; human)
[8] = molecular target: NS52646-2655 / HLA B*0702 (DENV2 strain S221; human)
[9] = molecular target: NS4B2280-2289 / HLA B*0702 (DENV2 strain S221; human)
[10] = molecular target: NS4A2140-2148 / HLA A*0201 (DENV2 strain S221; human)
[11] = molecular target: NS2A1212-1221 / HLA B*0702 (DENV2 strain S221; human)
[12] = molecular target: NS2B1356-1370 / HLA DRB1*0101 (DENV2 strain S221; human)
[13] = molecular target: NS53283-3291 / HLA A*1101 (DENV2 strain S221; human)
[14] = molecular target: NS31509-1517 / HLA A*1101 (DENV2 strain S221; human)
[15] = molecular target: NS53079-3087 / HLA A*1101 (DENV2 strain S221; human)
[16] = molecular target: NS11090-1099 / HLA A*0101 (DENV2 strain S221; human)
[17] = molecular target: NS53058-3066 / HLA A*0201 (DENV2 strain S221; human)
[18] = molecular target: NS31753-1761 / HLA B*0702 (DENV2 strain S221; human)
[19] = molecular target: NS31808-1817 / HLA B*0702 (DENV2 strain S221; human)
[20] = molecular target: NS31681-1689 / HLA A*0201 (DENV2 strain S221; human)
[21] = molecular target: E451-459 / HLA A*0101 (DENV2 strain S221; human)
[22] = molecular target: NS53112-3121 / HLA A*1101 (DENV2 strain S221; human)
[23] = molecular target: NS31682-1690 / HLA B*0702 (DENV2 strain S221; human)
[24] = molecular target: NS32013-2022 / HLA A*0201 (DENV2 strain S221; human)
[25] = molecular target: NS31465-1473 / HLA A*0201 (DENV2 strain S221; human)
[26] = molecular target: NS4B2315-2323 / HLA A*1101 (DENV2 strain S221; human)
[27] = molecular target: NS2B1355-1363 / HLA A*0201 (DENV2 strain S221; human)
[28] = molecular target: NS31863-1871 / HLA A*1101 (DENV2 strain S221; human)
[29] = molecular target: NS53077-3085 / HLA B*0702 (DENV2 strain S221; human)
[30] = molecular target: NS2A1251-1259 / HLA A*0101 (DENV2 strain S221; human)
[31] = molecular target: NS4B2296-2304 / HLA B*0702 (DENV2 strain S221; human)
[32] = molecular target: NS52966-2980 / HLA DRB1*0101 (DENV2 strain S221; human)
[33] = molecular target: NS2A1199-1213 / HLA DRB1*0101 (DENV2 strain S221; human)
[34] = molecular target: NS52608-2616 / HLA A*1101 (DENV2 strain S221; human)
[35] = molecular target: NS31608-1617 / HLA A*1101 (DENV2 strain S221; human)
[36] = molecular target: NS2B1450-1459 / HLA A*0201 (DENV2 strain S221; human)
[37] = molecular target: NS2B1383-1391 / HLA A*0201 (DENV2 strain S221; human)
[38] = molecular target: C53-67 / HLA DRB1*0101 (DENV2 strain S221; human)
[39] = molecular target: NS4A2205-2213 / HLA A*0201 (DENV2 strain S221; human)
[40] = molecular target: target splenocytes pulsed with NS2B108-122, NS3198-212 and NS3237-251 together (I-A^b-restricted)
[41] = molecular target: NS31742-1756 / HLA DRB1*0101 (DENV2 strain S221; human)
[42] = molecular target: NS4B2280-2289 / HLA B*0702 (DENV2 strain S221; human); remark: listed apart in the source
[43] = molecular target: NS32070-2078 / HLA B*0702 (DENV2 strain S221; human)
[44] = molecular target: purified HLA B*0702 molecules (human); assay: inhibition of radiolabeled probe peptide binding to purified HLA
[45] = molecular target: purified HLA A*0201 molecules (human); assay: as above
[46] = molecular target: NS2A1192-1200 / HLA A*0101 (DENV2 strain S221; human)

Substance: PBMC from HLA matched DENV seropositive human donors (cells without a defined receptor)
- T cell responses [SFC] human (IFNγ ELISPOT) [1]: 92 SFC
- T cell responses [SFC] human (IFNγ ELISPOT) [2]: 3090 SFC
- T cell responses [SFC] human (IFNγ ELISPOT) [3]: 143 SFC
- T cell responses [SFC] human (IFNγ ELISPOT) [4]: 393 SFC
- T cell responses [SFC] human (IFNγ ELISPOT) [5]: 1820 SFC
- T cell responses [SFC] human (IFNγ ELISPOT) [6]: 1340 SFC
- T cell responses [SFC] human (IFNγ ELISPOT) [7]: 1430 SFC
- T cell responses [SFC] human (IFNγ ELISPOT) [8]: 0 SFC
- T cell responses [SFC] human (IFNγ ELISPOT) [9]: 0 SFC
- T cell responses [SFC] human (IFNγ ELISPOT) [10]: 297 SFC
- T cell responses [SFC] human (IFNγ ELISPOT) [11]: 335 SFC
- T cell responses [SFC] human (IFNγ ELISPOT) [12]: 279 SFC
- T cell responses [SFC] human (IFNγ ELISPOT) [13]: 800 SFC
- T cell responses [SFC] human (IFNγ ELISPOT) [14]: 0 SFC
- T cell responses [SFC] human (IFNγ ELISPOT) [15]: 0 SFC
- T cell responses [SFC] human (IFNγ ELISPOT) [16]: 104 SFC
- T cell responses [SFC] human (IFNγ ELISPOT) [17]: 597 SFC
- T cell responses [SFC] human (IFNγ ELISPOT) [18]: 410 SFC
- T cell responses [SFC] human (IFNγ ELISPOT) [19]: 232 SFC
- T cell responses [SFC] human (IFNγ ELISPOT) [20]: 401 SFC
- T cell responses [SFC] human (IFNγ ELISPOT) [21]: 67 SFC
- T cell responses [SFC] human (IFNγ ELISPOT) [22]: 0 SFC
- T cell responses [SFC] human (IFNγ ELISPOT) [23]: 207 SFC
- T cell responses [SFC] human (IFNγ ELISPOT) [24]: 312 SFC
- T cell responses [SFC] human (IFNγ ELISPOT) [25]: 495 SFC
- T cell responses [SFC] human (IFNγ ELISPOT) [26]: 0 SFC
- T cell responses [SFC] human (IFNγ ELISPOT) [27]: 417 SFC
- T cell responses [SFC] human (IFNγ ELISPOT) [28]: 0 SFC
- T cell responses [SFC] human (IFNγ ELISPOT) [29]: 390 SFC
- T cell responses [SFC] human (IFNγ ELISPOT) [30]: 143 SFC
- T cell responses [SFC] human (IFNγ ELISPOT) [31]: 460 SFC
- T cell responses [SFC] human (IFNγ ELISPOT) [32]: 729 SFC
- T cell responses [SFC] human (IFNγ ELISPOT) [33]: 249 SFC
- T cell responses [SFC] human (IFNγ ELISPOT) [34]: 0 SFC
- T cell responses [SFC] human (IFNγ ELISPOT) [35]: 880 SFC
- T cell responses [SFC] human (IFNγ ELISPOT) [36]: 588 SFC
- T cell responses [SFC] human (IFNγ ELISPOT) [37]: 434 SFC
- T cell responses [SFC] human (IFNγ ELISPOT) [38]: 314 SFC
- T cell responses [SFC] human (IFNγ ELISPOT) [39]: 301 SFC

Substance: CD4+ T cells of DENV2-infected IFN-α/βR-/- mice (C57BL/6 background) (cells without a defined receptor)
- in vivo cytotoxicity assay, percentage killing [40]: 30%

Substance: splenic CD4+ T cells of DENV2 (S221)-infected HLA DRB1*0101 transgenic IFN-α/βR-/- mice (cells without a defined receptor)
- T cell responses [SFC] mouse (IFNγ ELISPOT) [12]: 65 SFC
- T cell responses [SFC] mouse (IFNγ ELISPOT) [41]: 448 SFC
- T cell responses [SFC] mouse (IFNγ ELISPOT) [32]: 851 SFC
- T cell responses [SFC] mouse (IFNγ ELISPOT) [33]: 764 SFC
- T cell responses [SFC] mouse (IFNγ ELISPOT) [38]: 77 SFC

Substance: splenic CD8+ T cells of DENV2 (S221)-infected HLA B*0702 transgenic IFN-α/βR+/+ mice (cells without a defined receptor)
- IFNγ ELISPOT (SFC/10^6 CD8+ T cells) [42]: 50

Substance: splenic CD8+ T cells of DENV2 (S221)-infected HLA A*1101 transgenic IFN-α/βR-/- mice (cells without a defined receptor)
- T cell responses [SFC] mouse (IFNγ ELISPOT) [2]: 148 SFC
- T cell responses [SFC] mouse (IFNγ ELISPOT) [13]: 358 SFC
- T cell responses [SFC] mouse (IFNγ ELISPOT) [14]: 436 SFC
- T cell responses [SFC] mouse (IFNγ ELISPOT) [15]: 105 SFC
- T cell responses [SFC] mouse (IFNγ ELISPOT) [26]: 712 SFC
- T cell responses [SFC] mouse (IFNγ ELISPOT) [28]: 208 SFC
- T cell responses [SFC] mouse (IFNγ ELISPOT) [35]: 1000 SFC

Substance: splenic CD8+ T cells of DENV2 (S221)-infected HLA B*0702 transgenic IFN-α/βR-/- mice (cells without a defined receptor)
- T cell responses [SFC] mouse (IFNγ ELISPOT) [6]: 811 SFC
- T cell responses [SFC] mouse (IFNγ ELISPOT) [7]: 1060 SFC
- T cell responses [SFC] mouse (IFNγ ELISPOT) [8]: 994 SFC
- T cell responses [SFC] mouse (IFNγ ELISPOT) [9]: 1540 SFC
- T cell responses [SFC] mouse (IFNγ ELISPOT) [11]: 400 SFC
- T cell responses [SFC] mouse (IFNγ ELISPOT) [18]: 509 SFC
- T cell responses [SFC] mouse (IFNγ ELISPOT) [19]: 364 SFC
- T cell responses [SFC] mouse (IFNγ ELISPOT) [23]: 1290 SFC
- T cell responses [SFC] mouse (IFNγ ELISPOT) [29]: 487 SFC
- T cell responses [SFC] mouse (IFNγ ELISPOT) [31]: 1010 SFC
- T cell responses [SFC] mouse (IFNγ ELISPOT) [43]: 1850 SFC

Substance: splenic CD8+ T cells of DENV2 (S221)-infected HLA A*0201 transgenic IFN-α/βR-/- mice (cells without a defined receptor)
- T cell responses [SFC] mouse (IFNγ ELISPOT) [4]: 265 SFC
- T cell responses [SFC] mouse (IFNγ ELISPOT) [10]: 384 SFC
- T cell responses [SFC] mouse (IFNγ ELISPOT) [17]: 353 SFC
- T cell responses [SFC] mouse (IFNγ ELISPOT) [20]: 299 SFC
- T cell responses [SFC] mouse (IFNγ ELISPOT) [24]: 417 SFC
- T cell responses [SFC] mouse (IFNγ ELISPOT) [25]: 207 SFC
- T cell responses [SFC] mouse (IFNγ ELISPOT) [37]: 519 SFC

Substance: NS4B2296-2305 (peptide)
- IC50 [44]: > 1000 nM

Substance: NS31681-1689 (peptide)
- IC50 [45]: 18 nM

Substance: splenic CD8+ T cells of DENV2 (S221)-infected HLA A*0101 transgenic IFN-α/βR-/- mice (cells without a defined receptor)
- T cell responses [SFC] mouse (IFNγ ELISPOT) [1]: 153 SFC
- T cell responses [SFC] mouse (IFNγ ELISPOT) [46]: 430 SFC
- T cell responses [SFC] mouse (IFNγ ELISPOT) [3]: 495 SFC
- T cell responses [SFC] mouse (IFNγ ELISPOT) [16]: 228 SFC
- T cell responses [SFC] mouse (IFNγ ELISPOT) [21]: 327 SFC
- T cell responses [SFC] mouse (IFNγ ELISPOT) [30]: 465 SFC
